No end group written: not given here.
Target: His-tagged murine Importin α1 with the Importin β binding domain (IBB) deleted (ImpαΔIBB) (murine, UniProt P52293 70-529)
Assay: crystal structure

binding result | Binder
binds | Ac-SHLSPRKKRPRQTGAL [TdT NLS peptide for crystallization, Ac-S7HLSPRKKRPRQTGAL]
binds | Ac-RGILKAFPKRQKIHADASSKVLAKIPRRE [pol λ NLS peptide for crystallization, Ac-R4GILKAFPKRQKIHADASSKVLAKIPRRE]
binds | Ac-LPKRRRARVGSPSGDAASSTPPSTRFPGV [pol μ NLS peptide for crystallization, Ac-L2PKRRRARVGSPSGDAASSTPPSTRFPGV]
